The values below come from patent US20250186597A1 (BRIGHT PEAK THERAPEUTICS, published 2025).

Experiment [1] has as its target T1, Biotinylated Recombinant Human PD-1/CD279-Fc Chimera, carrier-free, Biolegend #789406 (human, UniProt Q15116 25-167, biotinylated (site not stated)).
T1 construct: Bought reagent; also called recombinant biotinylated human PD-1; human PD1/CD279 ligand; Fc part of the bought chimera not given; not described
The experiment is described as follows: ELISA; antibody coated, biotinylated human PD-1-Fc titrated.

The target in experiment [2] is T2, His-tagged human PD1, R&D #8986-PD (human, UniProt Q15116 25-167).
T2 construct: Bought reagent; not shown: His tag
The experiment is described as follows: BLI (Octet), antibody on AHC sensor, His-tagged human PD1 as analyte.

Experiment [3] addresses T1, Biotinylated Recombinant Human …. Kind of experiment: ELISA; antibody coated on the plate, biotinylated human PD-1-Fc titrated in solution (x axis), streptavidin-HRP, signal at 450 nm.
The target in experiment [4] is T3, recombinant biotinylated human FcRn (human, UniProt P55899 24-297; P61769 21-119, limits assumed, biotinylated (site not stated)).
T3 construct: also called human neonatal Fc receptor (FcRn); human Fc neonatal receptor
Kind of experiment: AlphaLISA competition at pH 6; competitor: human IgG on acceptor beads. A general note: Bead proximity is the source of the signal in Alpha formats.

Experiment [5] addresses T4, recombinant Human Fc gamma RIIA/CD32a (H167) Protein (R&D systems, 9595-CD-050, CF) (human, UniProt P12318 36-218).
T4 construct: also called FcγRIIa/CD32a; human Fc gamma receptors IIa
T4 sequence (looked up): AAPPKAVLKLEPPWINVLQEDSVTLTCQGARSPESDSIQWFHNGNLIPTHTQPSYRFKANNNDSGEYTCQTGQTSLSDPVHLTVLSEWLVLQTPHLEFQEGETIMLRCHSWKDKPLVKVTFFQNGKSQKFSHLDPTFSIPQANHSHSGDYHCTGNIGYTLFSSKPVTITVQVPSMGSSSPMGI
The experiment is described as follows: ELISA; antibody coated, Fc gamma receptor titrated.

In experiment [6] the target is T5, recombinant Human Fc gamma RIIIA/CD16a Protein (R&D systems, 4325-FC-050; CF) (human, UniProt P08637 17-208, limits assumed).
T5 construct: also called FcγRIIIa/CD16; human Fc gamma receptor IIIa (CD16)
Kind of experiment: ELISA; antibody coated, Fc gamma receptor titrated. (In general: An ELISA detects its analyte on a solid surface through an enzyme-linked reagent.)

Experiment [7] has as its target T6, recombinant Human Fc gamma RI/CD64 Protein (R&D systems, 1257-FC-050, CF) (human, UniProt P12314 16-288).
T6 construct: also called FcγRI/CD64; human Fc gamma receptor I (CD64)
Kind of experiment: ELISA; antibody coated, Fc gamma receptor titrated.

The target of experiment [8] is T7, recombinant Human Fc gamma RIIB/CD32b Avi-tag Protein (R&D systems, AVI1875-050, CF) (human, UniProt P31994 46-217).
T7 construct: also called FcγRIIb/CD32b
T7 sequence (looked up): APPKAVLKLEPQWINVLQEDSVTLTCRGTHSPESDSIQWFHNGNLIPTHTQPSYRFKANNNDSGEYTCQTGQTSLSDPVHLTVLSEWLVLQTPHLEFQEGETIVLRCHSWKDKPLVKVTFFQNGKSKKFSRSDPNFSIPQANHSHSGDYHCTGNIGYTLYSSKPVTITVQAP
Kind of experiment: ELISA; antibody coated, Fc gamma receptor titrated.

B1: LZM-009 (antibody, V domains shown)
VH: QVQLVQSGAEVKKPGASVKVSCKASGYTFTSYYMYWVRQAPGQGLEWMGGVNPSNGGTNFNEKFKSRVTITADKSTSTAYMELSSLRSEDTAVYYCARRDYRYDMGFDYWGQGTTVTVSS
VL: EIVLTQSPATLSLSPGERATISCRASKGVSTSGYSYLHWYQQKPGQAPRLLIYLASYLESGVPARFSGSGSGTDFTLTISSLEPEDFATYYCQHSRELPLTFGTGTKVEIK
notes: full antibody with an Fc region (K248, EU numbering); also called anti-PD-1 antibody LZM-009
In the case of B1, the Kd (commonly a measure of binding affinity in units of concentration) in experiment [1] came to 0.0407 nM. For the same molecule, in experiment [2], the Kd came to 23.5 nM; the off-rate constant (koff) (in general, the rate constant with which the complex falls apart) was 0.0077 s⁻¹; the kon (commonly the rate constant with which the complex forms) turned out to be 342000 M⁻¹ s⁻¹. Moreover, the EC50 (read off the curve) – broadly, the concentration at which the effect is half-maximal – in experiment [3] was roughly 0.06 nM.

B2: Durvalumab/Imfinzi (antibody, human IgG1, kappa)
heavy: EVQLVESGGGLVQPGGSLRLSCAASGFTFSRYWMSWVRQAPGKGLEWVANIKQDGSEKYYVDSVKGRFTISRDNAKNSLYLQMNSLRAEDTAVYYCAREGGWFGELAFDYWGQGTLVTVSSASTKGPSVFPLAPSSKSTSGGTAALGCLVKDYFPEPVTVSWNSGALTSGVHTFPAVLQSSGLYSLSSVVTVPSSSLGTQTYICNVNHKPSNTKVDKRVEPKSCDKTHTCPPCPAPEFEGGPSVFLFPPKPKDTLMISRTPEVTCVVVDVSHEDPEVKFNWYVDGVEVHNAKTKPREEQYNSTYRVVSVLTVLHQDWLNGKEYKCKVSNKALPASIEKTISKAKGQPREPQVYTLPPSREEMTKNQVSLTCLVKGFYPSDIAVEWESNGQPENNYKTTPPVLDSDGSFFLYSKLTVDKSRWQQGNVFSCSVMHEALHNHYTQKSLSLSPGK
light: EIVLTQSPGTLSLSPGERATLSCRASQRVSSSYLAWYQQKPGQAPRLLIYDASSRATGIPDRFSGSGSGTDFTLTISRLEPEDFAVYYCQQYGSLPWTFGQGTKVEIKRTVAAPSVFIFPPSDEQLKSGTASVVCLLNNFYPREAKVQWKVDNALQSGNSQESVTEQDSKDSTYSLSSTLTLSKADYEKHKVYACEVTHQGLSSPVTKSFNRGEC
notes: also called MEDI-4736
Regarding B2, the equilibrium dissociation constant (Kd) in experiment [4] was found to be 8.31 nM; in experiment [5] it was 160 nM; in experiment [6], 234 nM; in experiment [7] it was 2.34 nM; in experiment [8], 233 nM.

B3: Pembrolizumab/Keytruda (antibody, human IgG4 S228P, kappa)
heavy: not shown
light: EIVLTQSPATLSLSPGERATLSCRASKGVSTSGYSYLHWYQQKPGQAPRLLIYLASYLESGVPARFSGSGSGTDFTLTISSLEPEDFAVYYCQHSRDLPLTFGGGTKVEIKRTVAAPSVFIFPPSDEQLKSGTASVVCLLNNFYPREAKVQWKVDNALQSGNSQESVTEQDSKDSTYSLSSTLTLSKADYEKHKVYACEVTHQGLSSPVTKSFNRGEC
notes: also called Lambrolizumab; MK-3475
Take B3: the dissociation constant Kd in experiment [4] came out at 7.45 nM; in experiment [6], 1660 nM; in experiment [7], 0.593 nM.
